Here are results for 2 substances from PMC9547787.

One assay deals with SUV39H2 (UniProt Q9H5I1). The experiment in a line: proximity ligation assay (PLA). As to conditions: MO3.13 cells; n: EV = 14; H3.1WT = 36; H3.1K27M = 67; H3.3WT = 60; H3.3K27M = 62; parent: est. 1.2; read off a plot.
In the next assay the target is BAZ2A. The experiment in a line: BioID (streptavidin pulldown, LC-MS/MS). As to conditions: Flp-In T-Rex HEK293 cells; parent: est. 220; read off a plot.
The target in a further assay is MBD3. The experiment in a line: BioID (streptavidin pulldown, LC-MS/MS). As to conditions: Flp-In T-Rex HEK293 cells; parent: est. 41; read off a plot.
In a further assay the target is MBD4. The assay can be described thus: BioID (streptavidin pulldown, LC-MS/MS). As to conditions: Flp-In T-Rex HEK293 cells; parent: est. 14; read off a plot.
In the next assay the target is MECP2. The experiment in a line: BioID (streptavidin pulldown, LC-MS/MS). As to conditions: Flp-In T-Rex HEK293 cells; parent: est. 17; read off a plot.

Chain of UniProt Q9H5I1 (Q9H5I1 whole entry): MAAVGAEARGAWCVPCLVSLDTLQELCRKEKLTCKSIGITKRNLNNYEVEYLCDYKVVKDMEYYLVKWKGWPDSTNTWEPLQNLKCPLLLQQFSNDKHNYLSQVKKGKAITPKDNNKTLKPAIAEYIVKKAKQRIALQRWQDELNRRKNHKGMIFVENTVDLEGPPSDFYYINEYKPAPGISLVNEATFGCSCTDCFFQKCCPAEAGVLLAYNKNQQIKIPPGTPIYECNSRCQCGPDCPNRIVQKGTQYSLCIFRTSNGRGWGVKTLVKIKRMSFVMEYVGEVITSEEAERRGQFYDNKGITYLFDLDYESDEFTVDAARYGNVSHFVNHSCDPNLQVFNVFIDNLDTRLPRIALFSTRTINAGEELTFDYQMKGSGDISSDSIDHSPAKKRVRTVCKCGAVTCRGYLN

Regarding “H3.1WT-FLAG/HA (from UniProt P68431) K27M”, in the assay with SUV39H2, the response (relative foci (relative to H3.3WT)) was 0.54.
Regarding “H3.3WT (FLAG-BirA* fusion, BioID bait) (from UniProt P84243) G34R”, the response (peptide count) was determined as 83 with BAZ2A, 23 with MBD3, 13 with MBD4 and 4.1 with MECP2.
